Source: publication PMC6105683 (Nature Communications, 2018)

What was measured:
Experiment in all cases: MST
[1] = test system: GST-ZCCHC3;GST-cGAS
[2] = test system: GST-ZCCHC3
[3] = test system: GST-cGAS
[4] = target: T1, GST-cGAS (UniProt Q8N884 1-522); settings: both partners purified
T1 construct: also called recombinant cGAS
T1 sequence (Q8N884 whole entry): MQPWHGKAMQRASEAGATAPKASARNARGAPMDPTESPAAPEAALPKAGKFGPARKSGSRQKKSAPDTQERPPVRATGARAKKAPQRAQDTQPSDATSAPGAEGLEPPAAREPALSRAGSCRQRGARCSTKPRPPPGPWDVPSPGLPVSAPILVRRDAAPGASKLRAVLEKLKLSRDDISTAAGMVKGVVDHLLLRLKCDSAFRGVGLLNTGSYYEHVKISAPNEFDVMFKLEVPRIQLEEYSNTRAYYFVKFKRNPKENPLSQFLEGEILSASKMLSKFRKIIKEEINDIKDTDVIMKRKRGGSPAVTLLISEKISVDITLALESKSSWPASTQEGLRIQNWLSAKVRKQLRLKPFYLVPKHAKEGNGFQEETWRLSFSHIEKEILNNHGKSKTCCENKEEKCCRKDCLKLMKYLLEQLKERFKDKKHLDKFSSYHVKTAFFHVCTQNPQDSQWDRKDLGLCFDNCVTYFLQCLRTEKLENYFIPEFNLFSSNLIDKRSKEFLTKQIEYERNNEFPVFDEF

Kd [4]	Molecule	Kd [1]	Kd [2]	Kd [3]
	HSV60	7.62 nM	866 nM	600 nM
79.6 ± 12.5 nM	GST-ZCCHC3 (natural protein, UniProt Q9NUD5 1-403, looked up, lysine residues labelled with a Blue-NHS labeling kit, dye:protein molar ratio of 3, also called recombinant ZCCHC3) MATGGGAEEERKRGRPQLLPPARPAARGEEADGGREKMGWAQVVKNLAEKKGEFREPRPPRREEESGGGGGSAGLGGPAGLAAPDLGDFPPAGRGDPKGRRRDPAGEAVDPRKKKGAAEAGRRKKAEAAAAAMATPARPGEAEDAAERPLQDEPAAAAGPGKGRFLVRICFQGDEGACPTRDFVVGALILRSIGMDPSDIYAVIQIPGSREFDVSFRSAEKLALFLRVYEEKREQEDCWENFVVLGRSKSSLKTLFILFRNETVDVEDIVTWLKRHCDVLAVPVKVTDRFGIWTGEYKCEIELRQGEGGVRHLPGAFFLGAERGYSWYKGQPKTCFKCGSRTHMSGSCTQDRCFRCGEEGHLSPYCRKGIVCNLCGKRGHAFAQCPKAVHNSVAAQLTGVAGH			
